Two molecules from patent US9688764B2, “Methods of treating breast cancer by administering anti-human prolactin receptor (PRLR) antibodies” (REGENERON PHARMACEUTICALS, INC., priority 2013, dated 2017) can be followed below.

The test system of assay [1] is T47D#11 tumors. The assay can be described thus: Tumor growth inhibition in xenograft-bearing mice. To be noted: multi-dose, 5 and 15 mg/kg. Format: in vivo, CB17 SCID mice. An excerpt: Briefly, 20×10^6 MCF7/PRLR cells (ATCC HTB-22 transfected with full length hPRLR as previously described) were implanted subcutaneously into the left mammary fat pad of female NCr nude mice. In other studies, 10×10^6 PC3/PRLR (ATCC CRL-1435 transfected with full length hPRLR as previously described) were implanted subcutaneously into the left flank of male SCID mice. Additionally, 10×10^6 parental T47D (ATCC HTB-133) or […] T47D#11 cells (ATCC HTB-133 serially passaged in vivo as described below) were subcutaneously implanted into the left flank of female CB17 SCID mice. All mice were obtained from Taconic (Hudson, N.Y.). Each bolus of cells was supplemented with a 90-day estrogen release pellet (1.7 mg/pellet; Innovative Research America, Sarasota Fla.). Once tumors had reached an average volume of 250 mm^3, mice were randomized into groups of seven and dosed with anti-PRLR antibody-drug conjugates of the invention or control reagents. Control reagents included PBS vehicle, free methyl-disulfide DM1 (DM1-SMe) and isotype Control 1-DM1.
In multi-dose studies, mice were dosed once a week for a total of three weeks with tumor volumes and body weights being monitored twice weekly throughout the study. Test ADCs were dosed at 5 and/or 15 mg/kg in the multi-dose studies. In single-dose studies, mice received a single dose of test ADC, and tumor volumes and body weights were monitored twice weekly throughout the study. Test ADCs were dosed at 1, 2.5, 5, and 15 mg/kg in the single-dose studies. Average tumor size as well as tumor growth inhibition relative to the vehicle treated group were calculated for each group. Tumors were measured with calipers twice a week until the average size of the vehicle group reached 1000 mm^3. Tumor size was calculated using the formula (length×width^2)/2. Tumor growth inhibition was calculated according to the following formula: (1−((Tfinal−Tinitial)/(Cfinal−Cinitial)))*100, where T (treated group) and C (control group) represent the mean tumor mass on the day the vehicle group reached 1000 mm^3. […] Results are summarized in Tables 21-25 (multi-dose) and Table 26 (single dose). (NT=not tested in the particular experiment shown).

Assay [2] has as its system NCI-N87 cells. The assay can be described thus: Cell viability (cell kill) assay. In kind it is cell-based. As to conditions: Table 17. From the text: PRLR-overexpressing cells, including HEK293, PC3, MCF7 and NCI-N87, were generated to assess the ability of anti-PRLR conjugated antibodies to reduce cell viability. For comparative purposes, PC3 and T47D cells with overexpressed ErbB2 were also generated, as well as an MCF7 cell line over-expressing both hPRLR and hErbB2. Briefly, Lipofectamine® 2000-mediated transfection methodology was utilized to generate HEK293 cells expressing human PRLR (HEK293/hPRLR) or human ErbB2 (HEK293/hErbB2). Lipofectamine LTX with Plus Reagent was used to generate PC3 cells expressing human PRLR (PC3/hPRLR) or human ErbB2 (PC3/hErbB2). Lentiviral-mediated transduction was utilized to generate MCF7 cells expressing human PRLR (MCF7/hPRLR), NCI-N87 cells expressing human PRLR (NCI-N87/hPRLR), T47D cells over-expressing human ErbB2 (T47D/hErbB2), and MCF7 cells expressing both human PRLR and human ErbB2 (MCF7/hPRLR/hErbB2). All lines were selected for at least two weeks in complete growth media plus appropriate selection reagents. Stably expressing populations were enriched for PRLR expression via FACS using the anti PRLR antibody Control I.
Next, the ability of anti-PRLR-DM1 antibody-drug conjugates (i.e., anti-PRLR antibodies conjugated to DM1 via a non-cleavable linker [SMCC]) to reduce cell viability was determined using in vitro cell based assays. Cells were seeded in PDL-coated 96 well plates at 1500 to 10000 cells per well in complete growth media and allowed to grow overnight. For cell viability curves, ADCs or free DM1 (as the methyl disulfide derivative DM1-SMe) were added to the cells at final concentrations ranging from 500 nM to 5 pM and incubated for 3 days. The 293, PC3 and T47D cells were incubated with CCK8 (Dojindo, Rockville, Md.) for the final 1-3 hours and the absorbance at 450 nm (OD450) was determined on a Flexstation3 (Molecular Devices, Sunnyvale, Calif.). MCF7 cells were treated with Hoechst 33342 nuclear stain while being fixed with 4% formaldehyde. Images were acquired on the ImageXpress micro XL (Molecular Devices, Sunnyvale, Calif.) and nuclear counts were determined via Columbus image analysis software (Perkin Elmer, Shelton, Conn.). Background OD450 values (PC3, 293, and T47D) or nuclear counts (MCF7) from digitonin (40 nM) treated cells was subtracted from all wells and viability was expressed as a percentage of the untreated controls. IC50 values were determined from a four-parameter logistic equation over a 10-point response curve (GraphPad Prism).
The potency of anti-PRLR conjugated antibodies compared with a similarly conjugated antibody to the co-expressed ErbB2 cell surface target was also assessed. […]

The test system of assay [3] is SK-BR-3 cells. The experiment in a line: Cell viability (cell kill) assay. In kind it is cell-based. As to conditions: Table 16.

B1: H1H6958N2-DM1: anti-PRLR antibody H1H6958N2 conjugated to DM1 through an SMCC linker (conjugate)
VH: QVQLVESGGGVVQPGRSLRLSCGASGFTFRNYGMQWVRQGPGKGLEWVTLISFDGNDKYYADSVKGRFTISRDNSKNTLFLQMNSLRTEDTAVYYCARGGDFDYWGQGTLVTVSS
VL: DIQMTQSPSSLSASVGDRVTITCRASQDIRKDLGWYQQKPGKAPKRLIYAASSLHSGVPSRFSGSGSGTEFTLTISSLQPEDFATYYCLQHNSYPMYTFGQGTKLEIK
As for B1, the “effect on T47D#11 tumor growth” value in assay [1] is reported as “potently inhibited tumor growth”.

B2: H1H6953N-DM1 (conjugate)
VH: EVQLLESGGGLVQPGGTLRLSCAASGFTFSAYAMSWVRQAPGKGLEWVSSINVRAGDTYYADSVKGRFTISRDNSKNTLFLLMNSLRAEDTAAYYCAKARYSSNWGFDFWGQGTLVTVSS
VL: DIVMTQSPDSLTVSLGARTTINCQSSQTILHSSNNHNYLAWYQQKPGLPPKLLIYWSSTRESGVPDRFSGSGSGTDFTLTISSLQAEDVAIYYCQQYSNTPYTFGQGTKLEIN
As to B2, the “% Kill” value in assay [2] is reported as 83%. Moreover, the half-inhibitory concentration (IC50) (usually the concentration that inhibits the measured activity by half) is 90 nM in assay [2] and 100 nM in assay [3].
